The results in this text go back to article doi:10.1101/2025.07.21.666041 (bioRxiv, 2025).

Several values for one entry are separate records, joined by “and”; a condition that tells them apart may be missing. Equal values may be shown once. Read-outs that look alike come from different tables or passages of the source.

The target of data set [1] is Measles virus (MeV) nonstructural protein C, full length, C-terminal GFP-Flag (measles virus) (UniProt P35977). Description: MST.
Data set [2] deals with T1, Measles virus (MeV) large (L) protein, full length (measles virus, UniProt P35975 1-2183). Description: cryo-EM structure.
T1 sequence (P35975 whole entry): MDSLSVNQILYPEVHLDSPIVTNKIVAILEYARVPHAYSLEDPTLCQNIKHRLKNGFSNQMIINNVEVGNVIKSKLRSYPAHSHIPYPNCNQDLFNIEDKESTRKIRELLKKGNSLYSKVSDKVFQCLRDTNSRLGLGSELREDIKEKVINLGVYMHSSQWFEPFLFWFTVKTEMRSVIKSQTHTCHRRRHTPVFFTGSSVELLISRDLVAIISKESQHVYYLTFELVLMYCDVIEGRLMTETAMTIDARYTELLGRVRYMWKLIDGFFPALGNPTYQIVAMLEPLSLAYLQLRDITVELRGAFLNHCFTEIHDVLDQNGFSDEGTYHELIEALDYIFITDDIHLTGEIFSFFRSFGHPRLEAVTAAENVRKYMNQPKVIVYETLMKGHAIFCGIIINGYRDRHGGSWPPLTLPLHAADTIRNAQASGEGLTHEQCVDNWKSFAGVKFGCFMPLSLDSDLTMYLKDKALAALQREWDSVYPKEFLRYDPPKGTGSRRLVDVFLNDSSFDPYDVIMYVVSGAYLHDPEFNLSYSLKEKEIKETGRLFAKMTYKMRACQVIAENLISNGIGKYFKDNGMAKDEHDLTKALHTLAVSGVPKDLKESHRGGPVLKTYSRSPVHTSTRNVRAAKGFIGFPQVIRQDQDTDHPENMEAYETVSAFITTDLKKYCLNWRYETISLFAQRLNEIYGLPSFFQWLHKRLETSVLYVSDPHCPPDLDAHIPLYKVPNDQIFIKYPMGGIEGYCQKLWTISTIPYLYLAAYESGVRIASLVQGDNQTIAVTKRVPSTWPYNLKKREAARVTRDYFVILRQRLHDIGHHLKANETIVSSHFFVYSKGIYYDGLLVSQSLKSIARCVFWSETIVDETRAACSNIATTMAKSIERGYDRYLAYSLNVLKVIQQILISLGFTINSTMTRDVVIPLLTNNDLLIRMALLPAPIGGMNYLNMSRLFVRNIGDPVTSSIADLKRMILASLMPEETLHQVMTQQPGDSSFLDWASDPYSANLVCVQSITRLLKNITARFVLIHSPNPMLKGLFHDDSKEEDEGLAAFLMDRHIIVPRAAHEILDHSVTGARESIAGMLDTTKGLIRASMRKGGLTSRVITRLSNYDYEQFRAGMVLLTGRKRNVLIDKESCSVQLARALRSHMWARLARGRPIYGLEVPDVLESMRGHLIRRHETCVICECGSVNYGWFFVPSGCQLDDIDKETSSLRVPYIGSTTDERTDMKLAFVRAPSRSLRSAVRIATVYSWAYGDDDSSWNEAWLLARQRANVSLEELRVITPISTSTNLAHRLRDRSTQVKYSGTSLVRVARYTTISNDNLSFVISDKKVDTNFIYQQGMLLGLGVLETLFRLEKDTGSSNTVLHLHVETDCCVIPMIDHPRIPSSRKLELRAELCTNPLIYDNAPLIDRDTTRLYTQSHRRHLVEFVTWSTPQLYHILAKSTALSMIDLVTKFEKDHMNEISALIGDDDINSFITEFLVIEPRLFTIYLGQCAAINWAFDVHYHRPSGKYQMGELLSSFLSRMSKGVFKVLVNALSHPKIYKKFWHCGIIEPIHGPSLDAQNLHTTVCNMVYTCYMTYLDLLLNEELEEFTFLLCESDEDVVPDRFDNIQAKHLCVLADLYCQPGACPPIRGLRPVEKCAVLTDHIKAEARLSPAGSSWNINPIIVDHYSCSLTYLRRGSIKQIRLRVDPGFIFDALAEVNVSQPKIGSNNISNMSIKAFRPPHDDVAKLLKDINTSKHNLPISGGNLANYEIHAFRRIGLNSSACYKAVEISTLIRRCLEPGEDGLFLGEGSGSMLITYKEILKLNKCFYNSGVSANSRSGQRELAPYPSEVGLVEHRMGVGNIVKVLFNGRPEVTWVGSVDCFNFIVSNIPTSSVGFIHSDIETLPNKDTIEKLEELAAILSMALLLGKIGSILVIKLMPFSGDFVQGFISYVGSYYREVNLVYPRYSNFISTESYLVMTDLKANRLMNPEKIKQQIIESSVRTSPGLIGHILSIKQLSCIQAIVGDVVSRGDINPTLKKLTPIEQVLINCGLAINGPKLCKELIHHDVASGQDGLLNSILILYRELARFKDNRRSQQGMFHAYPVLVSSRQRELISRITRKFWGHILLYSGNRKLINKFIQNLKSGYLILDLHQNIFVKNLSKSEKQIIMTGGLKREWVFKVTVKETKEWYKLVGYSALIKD
Data set [3] deals with the molecule itself. Description: cryo-EM structure.
The target in data set [4] is T1, Measles virus (MeV) large (L) protein, …. Description: SEC. Background: In gel filtration, larger molecules generally elute earlier.
Data set [5] deals with Measles virus L–P complex (full-length L with truncated P 304–507) (measles virus, UniProt P35975;P35974). Description: MST.
Sequence of Measles virus L–P complex (full-length L with truncated P 304–507) (P35975 whole entry, the tested form may be a part, one chain of several): as the sequence (P35975 whole entry) above
Data set [6] deals with the molecule itself. Description: cryo-EM structure. The source holds these as a separate data set.

On to “Measles virus nucleoprotein N lacking the N-arm (residues 30–525) (from UniProt P35972 30-525) (domain or fragment)”, for which the equilibrium dissociation constant (Kd) in data set [1] is 4.57 µM and 3.92 µM.

B1: Measles virus (MeV) phosphoprotein P, N-terminally truncated (residues 304–507) (domain or fragment)
chain: GDYYDDELFSDVQDIKTALAKIHEDNQKIISKLESLLLLKGEVESIKKQINRQNISISTLEGHLSSIMIAIPGLGKDPNDPTADVEINPDLKPIIGRDSGRALAEVLKKPVASRQLQGMTNGRTSSRGQLLKEFQPKPIGKKMSSAVGFVPDTGPASRSVIRSIIKSSRLEEDRKRYLMTLLDDIKGANDLAKFHQMLMKIIMK
Regarding B1, the binding result in data set [2] is on record as “binds”. In addition, in data set [3], the “stoichiometry N” value was determined as 4.

B2: Measles virus (MeV) phosphoprotein P, full length (natural protein)
chain: MAEEQARHVKNGLECIRALKAEPIGSLAIEEAMAAWSEISDNPGQERATCREEKAGSSGLSKPCLSAIGSTEGGAPRIRGQGPGESDDDAETLGIPPRNLQASSTGLQCYYVYDHSGEAVKGIQDADSIMVQSGLDGDSTLSGGDNESENSDVDIGEPDTEGYAITDRGSAPISMGFRASDVETAEGGEIHELLRLQSRGNNFPKLGKTLNVPPPPDPGRASTSGTPIKKGTERRLASFGTEIASLLTGGATQCARKSPSEPSGPGAPAGNVPEYVSNAALIQEWTPESGTTISPRSQNNEEGGDYYDDELFSDVQDIKTALAKIHEDNQKIISKLESLLLLKGEVESIKKQINRQNISISTLEGHLSSIMIAIPGLGKDPNDPTADVEINPDLKPIIGRDSGRALAEVLKKPVASRQLQGMTNGRTSSRGQLLKEFQPKPIGKKMSSAVGFVPDTGPASRSVIRSIIKSSRLEEDRKRYLMTLLDDIKGANDLAKFHQMLMKIIMK
With B2, the binding result in data set [4] is listed as “binds”.

B3: Measles virus (MeV) nonstructural protein C, full length, C-terminal GFP-Flag (natural protein)
chain: MSKTDWNASGLSRPSPSAHWPSRKLWQHGQKYQTTQDRSEPPAGKRRQAVRVSANHASQQLDQLKAVHLASAVRDLERAMTTLKLWESPQEISRHQALGYSVIMFMITAVKRLRESKMLTLSWFNQALMVIAPYQEETMNLKTAMWILANLIPRDMLSLTGDLLPSLWGSGLLMLKLQKEGRSTSS
Consider B3, for which the Kd in data set [5] was roughly 0.32 µM. For the same molecule, the “stoichiometry N” value in data set [6] turned out to be 2.

What is called Kd is a measure of binding affinity in units of concentration. Lower therefore signals a tighter complex. The stoichiometry N is a count of units in the complex or per binding partner.
